Results from US20130338033A1, “Diagnostic and Prognostic Markers for Metastasis” (VIRGINIA COMMONWEALTH UNIVERSITY, priority 2011, published 2013).

B1: rhIGFBP-2: recombinant human IGFBP-2 protein (protein, UniProt P18065 36-325, looked up)
Insulin-like growth …: AEVLFRCPPCTPERLAACGPPPVAPPAAVAAVAGGARMPCAELVREPGCGCCSVCARLEGEACGVYTPRCGQGLRCYPHPGSELPLQALVMGEGTCEKRRDAEYGASPEQVADNGDDHSEGGLVENHVDSTMNMLGGGGSAGRKPLKSGMKELAVFREKVTEQHRQMGKGGKHHLGLEEPKKLRPPPARTPCQQELDQVLERISTMRLPDERGPLEHLYSLHIPNCDKHGLYNLKQCKMSLNGQRGECWCVNPNTGKLIQGAPTIRGDPECHLFYNEQQEARGVHTQRMQ

Key:
IGFBP-2 = IGFBP-2 ELISA in conditioned media of FM-516 cells infected with Ad.5/3-mda-9; assay type: cell-based, human; details: Ad.5/3-mda-9, 1-5 μM (FIG. 4F)
[1] = system: chicken chorioallantoic membrane (CAM); assay: Chorioallantoic membrane (CAM) neovascularization assay; assay type: in vivo; details: HuVECs treated with rhIGFBP-2 (FIG. 3E)
Procedure: To detect in vivo angiogenesis, we performed CAM assays as described (28). Either cells or CM in a collagen sponge were implanted onto the CAM at day 8 of fertilization. At day 12, CAMs were fixed with 10% formalin; the neovasculature was examined and photographed.
Fertilized chicken eggs (10 eggs per group) was incubated under routine conditions and a square window was opened in the egg shell at the third day of incubation, after removal of 2-3 ml of albumen to detach the shell from the developing CAM. The window was sealed with a glass of the same size and the eggs were returned to the incubator. Either cells or conditioned media with collagen sponge was implanted onto the CAM at day 8 of incubation. At day 12, CAMs were fixed with 10% formalin the neovasculature was examined and photographed.

HuVECs [2] = assay: HuVEC proliferation (growth kinetics, trypan blue dye exclusion); assay type: cell-based, human; details: HuVECs treated with rhIGFBP-2 (FIG. 3B)
Procedure: FIG. 3 A-H. Pro-angiogenic activity of IGFBP-2. a) Top panel, an antibody-based array comparing the expression levels of regulators of angiogenesis in CM from C8161.9 con-sh and C8161.9-shmda-9 clones was performed as described in Materials and Methods. Bottom panel, graphical representation of the band intensity quantified by densitometry. b) HuVECs were cultured in the presence of recombinant human IGFBP-2 (rhIGFBP-2) protein alone or with neutralizing antibody (NA) and growth kinetics were determined by trypan blue dye exclusion as described in Materials and Methods. Data represents Mean±S.D. c, d & e) HuVECs were treated with rhIGFBP-2 with or without neutralizing antibody (NA) and migration (c), tube formation (d) and vascularization in CAM (e) were analyzed. Data represents Mean±S.D. f) C8161.9 cells were transfected with either scrambled RNA (si-con) or si-IGFBP-2 and CM were analyzed for tube formation on Matrigel (upper panel) and vascularization in CAM (lower panel). g) Pooled clones of C8161.9 cells stably expressing shIGFBP-2 were established and assessed for tumor generation ability in athymic nude mice (n=5, repeated three times). […] Tumor weight was measured at the end of the study. Data represents Mean±S.D. In panel c), d) and g), italicized letters indicate significant differences between groups assessed by Student's t-test (p<0.05). […]

VEGF-A promoter = VEGF-A promoter luciferase reporter assay in HuVECs; assay type: cell-based, human; details: HuVECs treated with rhIGFBP-2, 48 h after transfection (FIG. 5B)
Procedure: (§1) FIG. 5A-G. IGFBP-2 upregulates the expression of vascular endothelial growth factor (VEGF-A) through the AKT pathway in HuVECs. a) The expression of VEGF-A mRNA (top panel) and protein (bottom panel) were measured by real-time PCR and ELISA, respectively, after treating HuVECs with the indicated doses of rhIGFBP-2. Data represents Mean±S.D. b) HuVECs were transfected with VEGF-A promoter luciferease reporter plasmid and treated with the indicated concentrations of rhIGFBP-2. 48 h after transfection, cells were harvested for luciferase assays as described in Materials and Methods. c) HuVECs (1×10^6 cells) were treated or untreated with the specified doses of rhIGFBP-2 for the indicated times and expression of pAKT and AKT was analyzed by Western blotting. d) HuVECs were pre-treated with LY294002 (30 min) and then treated with rhIGFBP-2. Top panel, analysis of the expression of pART and AKT by Western blotting. Bottom panel, analysis the expression of VEGF-A by ELISA in the CM. e) HuVECs were treated with rhIGFBP-2 together with anti-αVβ3 integrin antibody or anti-mouse IgG as control. Top panel, analysis of expression of pAKT and AKT by Western blotting. Bottom panel, analysis of expression of VEGF-A by ELISA in the CM. f & g) HuVECs were treated as in “e” and CM was used to analyze tube formation […] and neovascularization in CAM (g). […]

HuVECs [3] = assay: HuVEC migration through Matrigel; assay type: cell-based, human; details: HuVECs treated with rhIGFBP-2 (FIG. 3C)
Source text: FIG. 2A-G. Effect of mda-9/syntenin on the angiogenic phenotype of human vascular endothelial cells (HuVECs). a) Time course analysis of growth of HuVECs in co-culture with either C8161.9-con-sh or C8161.9-shmda-9 clones. b) Analysis of tube formation by HuVECs co-cultured with C8161.9-con-sh or C8161.9-shmda-9 clones on Matrigel coated plates grown in serum-starved media conditions. Left panel, photomicrograph, Right panel, graphical representation of quantification of tube formation. Data represents Mean±S.D. c) HuVEC migration towards melanoma cells. […] HuVECs migration was quantified and graphical representation is provided in the lower panel. […] The assay was scored after 18 h. Photomicrograph (Left panel) and graphical quantification of migration (Right panel) is presented. […] Left panel, photomicrograph, Right panel, graphical representation of quantitation of tube formation. […]
FIG. 3 A-H. Pro-angiogenic activity of IGFBP-2. a) Top panel, an antibody-based array comparing the expression levels of regulators of angiogenesis in CM from C8161.9 con-sh and C8161.9-shmda-9 clones was performed as described in Materials and Methods. […] Data represents Mean±S.D. c, d & e) HuVECs were treated with rhIGFBP-2 with or without neutralizing antibody (NA) and migration (c), tube formation (d) and vascularization in CAM (e) were analyzed. […] Tumor weight was measured at the end of the study. […]

AKT = AKT activation (pAKT Western blotting) in HuVECs; assay type: cell-based, human; details: rhIGFBP-2 treatment of HuVECs (FIG. 5C)
Procedure: as §1

HuVECs [4] = assay: Capillary-like tube formation by HuVECs on Matrigel; assay type: cell-based, human; details: HuVECs treated with rhIGFBP-2 (FIG. 3D)
Procedure: Tube formation assays were performed as described previously (28) using an In Vitro Angiogenesis Assay Kit (Chemicon). The degree of network formation was quantified using the provider's instruction.

VEGF-A = VEGF-A expression in HuVECs (real-time PCR, ELISA); assay type: cell-based, human; details: HuVECs stimulated with rhIGFBP-2 (FIG. 5A)
Procedure: as §1

| Molecule | mda-9/syntenin-induced IGFBP-2 expression (IGFBP-2) | vascularization in CAM [1] | HuVEC proliferation (HuVECs [2]) | VEGF-A promoter activity (VEGF-A promoter) | HuVEC migration (HuVECs [3]) | time to AKT activation (AKT) [min] | HuVEC tube formation (HuVECs [4]) | VEGF-A expression, both RNA and protein (VEGF-A) |
| --- | --- | --- | --- | --- | --- | --- | --- | --- |
| CC(C)(C)n1nc(-c2ccc(Cl)cc2)c2c(N)ncnc21 [PP-2] | dose-dependent decrease |  |  |  |  |  |  |  |
| B1 |  | significant vascularization | significantly stimulated | dose-dependently up-regulated | significantly stimulated | ≤ 15 | significantly stimulated | dose-dependently up-regulated |
